From article PMC2229230 come the findings set out here.

Where two headings read alike, the source gives them in different places.

In assay [1] the target is endo-Gly0-gramicidin C. In words: single-channel recording in planar lipid bilayers.
Assay [2] has as its target endo-Gly0-gramicidin C. Briefly: single-channel recording in planar lipid bilayers. The source holds these as a separate data set.

On to endo-Gly0-gramicidin C (peptide), for which the values for the average channel duration tau (dimer lifetime, 1/k-1) with endo-Gly0-gramicidin C [1] and with endo-Gly0-gramicidin C [2] were 862 ms and 410 ms, respectively.
